This assay concerns elastase. In words: Elastase inhibition assay (fibroblast lysate, STANA substrate). In kind it is biochemical, human. As to the method:
The RSPP test materials were also tested to determine their effect(s) on elastase activity. In these experiments, human dermal fibroblasts were used as a source of the elastase enzyme. This enzyme was partially purified from the fibroblasts by lysing the cells in an elastase buffer and retaining the soluble portion of the lysate. Portions of this fibroblast lysate were then incubated with test materials and a synthetic elastase substrate, Suc-(Ala3)-p-Nitroaniline (STANA). Elastase acts upon this substrate to release p-nitroaniline, which can be detected spectrophotometrically by measuring the absorbance at a wavelength of 405 nm. An inhibition of the elastase enzyme is noted by a decrease in the amount of released p-nitroaniline when compared to uninhibited enzyme.
Cells were expanded and passed until a sufficient number of cells had been grown (not exceeding 10 passages). When a sufficient number of cells had been grown, the fibroblast lysate containing the elastase enzyme was prepared as follows:
The fibroblasts were washed twice with 15 ml of phosphate buffered saline with each wash removed via aspiration. Ice cold PBS (7.5 ml) was then added to the flask and the cells were detached with a cell scraper. The detached cells/PBS was transferred to a 15 ml centrifuge tube on ice. The flask was rinsed again with 7.5 ml of PBS, which was also transferred to the 15 ml tube. […] The protein concentration of the fibroblast lysate was determined using the Pierce BCA Protein Assay kit (see below for details) and the fibroblast lysate was stored at −75° C. until used (for up to 1 year).
Upon determining the protein concentration of the lysate, a small sample was obtained and the elastase activity of the lysate was determined at 1×, 0.5× and 0.25× concentrations. The activity was determined for each of the different concentrations in exactly the same way that the uninhibited sample was treated in the elastase assay (see below). […] After 1.25 hours, the well plate was removed and read in a 96-well plate reader at 405 nm. The mean absorbances were plotted versus concentration. […]

B1: GC2596-26-E: collagen-like repeat sequence protein polymer, head-[(GAHGPAGPK)2(GAQGPAGPG)24(GAHGPAGPK)2]4-tail; SEQ ID NO:34 (Example 5) (protein)
chain: MDPVVLQRRDWENPGVTQLNRLAAHPPFASDPMGAHGPAGPKGAHGPAGPKGAQGPAGPGGAQGPAGPGGAQGPAGPGGAQGPAGPGGAQGPAGPGGAQGPAGPGGAQGPAGPGGAQGPAGPGGAQGPAGPGGAQGPAGPGGAQGPAGPGGAQGPAGPGGAQGPAGPGGAQGPAGPGGAQGPAGPGGAQGPAGPGGAQGPAGPGGAQGPAGPGGAQGPAGPGGAQGPAGPGGAQGPAGPGGAQGPAGPGGAQGPAGPGGAQGPAGPGGAHGPAGPKGAHGPAGPKGAHGPAGPKGAHGPAGPKGAQGPAGPGGAQGPAGPGGAQGPAGPGGAQGPAGPGGAQGPAGPGGAQGPAGPGGAQGPAGPGGAQGPAGPGGAQGPAGPGGAQGPAGPGGAQGPAGPGGAQGPAGPGGAQGPAGPGGAQGPAGPGGAQGPAGPGGAQGPAGPGGAQGPAGPGGAQGPAGPGGAQGPAGPGGAQGPAGPGGAQGPAGPGGAQGPAGPGGAQGPAGPGGAQGPAGPGGAHGPAGPKGAHGPAGPKGAHGPAGPKGAHGPAGPKGAQGPAGPGGAQGPAGPGGAQGPAGPGGAQGPAGPGGAQGPAGPGGAQGPAGPGGAQGPAGPGGAQGPAGPGGAQGPAGPGGAQGPAGPGGAQGPAGPGGAQGPAGPGGAQGPAGPGGAQGPAGPGGAQGPAGPGGAQGPAGPGGAQGPAGPGGAQGPAGPGGAQGPAGPGGAQGPAGPGGAQGPAGPGGAQGPAGPGGAQGPAGPGGAQGPAGPGGAHGPAGPKGAHGPAGPKGAHGPAGPKGAHGPAGPKGAQGPAGPGGAQGPAGPGGAQGPAGPGGAQGPAGPGGAQGPAGPGGAQGPAGPGGAQGPAGPGGAQGPAGPGGAQGPAGPGGAQGPAGPGGAQGPAGPGGAQGPAGPGGAQGPAGPGGAQGPAGPGGAQGPAGPGGAQGPAGPGGAQGPAGPGGAQGPAGPGGAQGPAGPGGAQGPAGPGGAQGPAGPGGAQGPAGPGGAQGPAGPGGAQGPAGPGGAHGPAGPKGAHGPAGPKMDPGRYQLSAGRYHYQLVWCQK
modifications: silk-elastin repeat sequence protein copolymer
Regarding B1, the “Percent Inhibition” value runs as follows: (0.1%) −13%; (0.5%) −20%; (1%) −5%.

The values above are taken from US20130059772A1, “Use of Repeat Sequence Protein Polymers in Personal Care Compositions” (DANISCO US INC., priority 2003, published 2013).
